Assay results taken from patent US8071348B2, “Protein tyrosine phosphatase substrate-trapping double mutant and uses thereof” (Albert Einstein College of Medicine of Yeshiva University, priority 2002, dated 2011).
Read-outs that look alike come from different tables or passages of the source. [ ]: non-standard residue; d: D form. F2Pmp = N[C@@H](Cc1ccc(C(F)(F)P(=O)(O)O)cc1)C(=O)O

T1: EGFR 988-998 peptide DADEpYLIPQQG
T1 chain: DADEXLIPQQG

T2: EGFR^988-998 peptide, DADEpYLIPQQG (Homo sapiens, UniProt P18031, D181A)
T2 construct: The catalytic domain of PTP1B (residues 1 to 321) was used for in vitro study; made in house; host or cells: E. coli (pT7-7 plasmids)
T2 sequence (P18031 1-321 D181A): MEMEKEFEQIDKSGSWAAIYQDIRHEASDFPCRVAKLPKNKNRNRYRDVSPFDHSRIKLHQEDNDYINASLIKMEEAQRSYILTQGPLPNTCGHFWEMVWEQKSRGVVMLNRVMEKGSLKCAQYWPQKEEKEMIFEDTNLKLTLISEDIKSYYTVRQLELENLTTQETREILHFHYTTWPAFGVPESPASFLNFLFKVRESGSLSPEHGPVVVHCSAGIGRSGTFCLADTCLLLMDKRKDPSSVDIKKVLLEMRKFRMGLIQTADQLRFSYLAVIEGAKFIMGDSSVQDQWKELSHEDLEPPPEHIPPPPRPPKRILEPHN

T3: Ac-Asp-Ala-Asp-Glu-F2Pmp-Leu-NH2
T3 construct: Synthetic hexapeptide printed in three-letter code; also called F2Pmp-containing peptide; non-hydrolyzable substrate analog
T3 peptide: Ac-DADE[F2Pmp]L-NH2


Key:
[1] = biological target: T1, EGFR 988-998 peptide DADEpYLIPQQG
[2] = Kinetic constants for PTP1B-catalyzed hydrolysis of pNPP; type: biochemical; details: pNPP as substrate
Description: (§1) The catalytic domain of PTP1B (residues 1 to 321) was used for in vitro study. PTP1B mutants, C215S, D181A, and Q262A, were described previously (9, 25, 26). PTP1B double mutants, D181A/C215S and C215S/Q262A, were generated by PCR reactions, according to the standard procedure of the Quick-Change™ site-directed mutagenesis kit (Stratagene), using pT7-7/PTP1B/C215S as a template. PTP1B double mutants, D181A/C215E and D181A/Q262A, were generated by similar PCR procedures, using pT7-7/PTP1B/D181A as a template. The recombinant wild-type and mutant PTP1Bs were expressed in E. coli, and purified to homogeneity as described (25, 27). Protein concentration was determined from absorbance measurement at 280 nm, using an absorbance coefficient of 1.24 for 1 mg/ml PTP1B.
PTP activity was assayed at 25° C. and pH 7.0, in a reaction mixture (0.2 ml) containing pNPP concentrations ranging from 0.2 to 5 Km. The following buffered solution was used for activity measurements: pH 7.0, 50 mM 3,3-dimethylglutarate, 1 mM EDTA; the ionic strength was 0.15 M, as adjusted by addition of NaCl. Initial rate measurements for the enzyme-catalyzed hydrolysis of pNPP were conducted as previously described (26). Michaelis-Menten kinetic parameters were determined from a direct fit of the data to the Michaelis-Menten equation, using the nonlinear regression program, KINETASYST (Intellikinetics, State College, Pa.).

[3] = biological target: T2, EGFR^988-998 peptide, DADEpYLIPQQG; test: Kinetic constants for PTP1B-catalyzed hydrolysis of pTyr-containing EGFR988-998 peptide; type: biochemical; details: EGFR988-998 peptide as substrate
Description: as §1
(§2) All assays were performed at 25° C. in buffer (pH 7.0, ionic strength=0.15 M) containing 50 mM 3,3-dimethylglutarate and 1 mM EDTA. A continuous spectrophotometric assay, previously described (28), was employed to determine kcat and Km for the pTyr-containing peptides. The dephosphorylation reaction was monitored by either an increase in absorbance at 282 nm, or an increase in fluorescence at 305 nm. Fluorometric and absorbance determinations were performed on a Perkin-Elmer LS50B fluorometer and a Perkin-Elmer Lambda 14 spectrophotometer, respectively. The instruments were equipped with a water-jacketed cell holder, permitting maintenance of the reaction mixture at the desired temperature (25° C.).

[4] = system: EGFR^988-998 peptide, DADEpYLIPQQG; test: as above; type: biochemical; details: EGFR988-998 peptide as substrate
Description: as §1, §2

EGF receptor = test: Substrate protection: EGF receptor tyrosine phosphorylation in COS1 cells expressing PTP1B forms (anti-pTyr Western blot); type: cell-based, Monkey; details: COS1 cell lysates, anti-pTyr immunoblot (FIG. 4)
Description: FIG. 4 sets forth Western blots (WB) that show the level of tyrosine phosphorylation in the epidermal growth factor receptor (EGFR) upon expression of the wild-type and mutant PTP1Bs (4 μg plasmid/60 mm dish) in COS1 cells. Samples (50 μg total protein) were taken from the lysates of COS1 cells transfected with 4 μg of pJ3H plasmids expressing HA-tagged wild-type PTP1B, D181A, C215S, D181A/Q262A, or D181A/C215S. These samples were loaded into each lane for SDS-PAGE electrophoresis, and transferred onto a nitrocellulose membrane. The proteins on the membrane were first immunoblotted with anti-pTyr HRP conjugate (upper panel). The membrane was then stripped and re-probed with anti-hemagglutinin (anti-HA) HRP conjugate (lower panel).
The hemagglutinin-tagged (HA-tagged) full-length human wild-type PTP1B in pJ3H expression vector was a gift from Dr. Chemoff (30). The HA-tagged PTP1B mutants, C215S, D181A, D181A/C215S, and D181A/Q262A, were generated by PCR reactions, according to the standard procedure of the Quick-Change™ site-directed mutagenesis kit (Stratagene), using pJ3H-HA-PTP1B as a template. All mutations were verified by DNA sequencing.
Monkey kidney COS1 cells (ATCC: CRL-1650) were maintained in Dulbecco's modified Eagle's minimum essential medium (DMEM), supplemented with 10% fetal bovine serum (Life Technologies, Inc.), penicillin (50 units/ml), streptomycin (50 μg/ml), and L-glutamine (2 mM) under a humidified atmosphere containing 5% CO2. In transient transfection experiments, COS1 cells were inoculated at a density of 2×10^5 cells/60-mm dish, and grown overnight in DMEM containing 10% fetal bovine serum. Transfection was performed using LipoTAXI^R according to the manufacturer's recommendations (Stratagene, Cedar Creek, Tex.). Each transfection assay included 4 μg of purified DNA mixed with LipoTAXI^R in a 1:5 DNA:lipid ratio per 60-mm dish of cells. Following transfection, the cells were exchanged to normal culture medium, and maintained for 44 to 48 h at 37° C. and 5% CO2. The efficiency of transfection, as assessed by 5-bromo-4-chloro-3-indolyl-β-D galactoside (X-Gal) staining of pCMV-β-gal-transfected (β-Gal staining kit, Invitrogen) COS cells, was 25%.
The transfected cells (treated with or without EGF) were lysed with “lysis buffer” containing 50 mM Tris-HC1 (pH 7.5), 5 mM EDTA, 150 mM NaCl, 10 mM sodium phosphate, 10 mM sodium fluoride, 5 mM iodoacetic acid, 1 mM benzamidine, 1% Triton X-100, 10 μg/ml leupeptin, and 5 μg/ml Aprotinin. Lysate protein concentration was estimated using Bio-Rad protein assay reagent (Bio-Rad, Hercules, Calif.).
For immunoprecipitation, 1 mg of cell lysate was immunoprecipitated overnight with 30 μl of agarose-conjugated anti-hemagglutinin antibody at 4° C. Immunocomplexes were washed four times with the cell lysis buffer, and boiled for 5 min in SDS-PAGE sample buffer. Proteins in the cell lysate were separated by 8% SDS-PAGE under reducing conditions, according to the method of Laemmli (31), followed by blotting onto nitrocellulose membranes (Protran, Schleicher & Schuell). The nitrocellulose membranes were blocked with 5% non-fat dry milk in Tris-buffered saline/Tween (TBST) buffer (20 mM Tris-HC1, 150 mM NaCl, 0.1% Tween-20; pH 7.6) for 1 h at 25° C.
Thereafter, blots were incubated overnight with primary antibodies diluted in TBST containing 5% non-fat dry milk at 4° C. […]

[5] = system: Ac-Asp-Ala-Asp-Glu-F2Pmp-Leu-NH2; details: cited from earlier work
[6] = biological target: T3, Ac-Asp-Ala-Asp-Glu-F2Pmp-Leu-NH2; test: ITC, 25 C, pH 7.0
Description: (§3) All isothermal titration calorimetry experiments were performed using an MCS Isothermal Titration Calorimetry System from Microcal Inc. (Northampton, Mass.). Experiments at pH 7.0 were conducted at 25° C., in 50 mM 3,3-dimethylglutarate buffer containing 1 mM DTT. The ionic strength of the buffer was adjusted to 0.15 M by addition of NaCl. Protein concentration in the calorimeter cell was 27-85 µM, while the ligand concentration in the syringe was 0.37-1 mM.
(§4) A typical titration curve and binding isotherm for the binding of D181A/Q262A to Ac-Asp-Ala-Asp-Glu-F_2Pmp-Leu-NH_2 is shown in FIG. 3. From curve-fitting of the binding isotherms, the stoichiometry for the binding of the peptide to D181A/Q262A was determined to be 1:1.

[7] = biological target: T3, Ac-Asp-Ala-Asp-Glu-F2Pmp-Leu-NH2; test: ITC, 25 C, pH 7.0
Description: as §3
The PTP1B samples used in the isothermal titration calorimetry experiments were dialyzed completely against buffer. High-concentration stock solutions were prepared for ligands with distilled water, and adjusted to pH 7.0. […] Protein dilution during titration was determined by titration of buffer into the protein solution. […] The heat of ligand dilution was corrected by subtracting the average heat of injection after saturation.
as §4

[8] = biological target: Ac-Asp-Ala-Asp-Glu-F2Pmp-Leu-NH2; test: Isothermal titration calorimetry, binding of PTP1B and mutants to F2Pmp peptide; details: ITC, 25° C. and pH 7.0; data from this study
Description: FIG. 3 portrays calorimetric isothermal titration for the reaction of peptide Ac-Asp-Ala-Asp-Glu-F2Pmp-Leu-NH2 with PTP1B/D181A/Q262A. The upper graph depicts raw data for thirty 8-μl injections of the peptide (0.5 mM stock) into the isothermal cell containing 32 μM PTP1B/D181A/Q262A, at 4-min intervals and 25° C. Both the protein and the peptide were in 50 mM 3,3-dimethylglutarate buffer (I=0.15 M, pH 7.0) containing 1 mM DTT. The lower graph depicts an integration curve showing experimental points that were obtained by integration of the above peaks as plotted against the molar ratio of the peptide to PTP1B/D181A/Q262A within the reaction cell. The solid line corresponds to the best fit to the data according to the nonlinear, least-squares regression algorithm, ORIGIN (29).
as §3, with “Experiments at pH 7.0 were conducted at 25° C., in 50 mM 3,3-dimethylglutarate buffer containing 1 mM DTT.” left out, “μM,” for “µM,”
The PTP1B samples used in the isothermal titration calorimetry experiments were dialyzed completely against buffer. High-concentration stock solutions were prepared for ligands with distilled water, and adjusted to pH 7.0. Stock was diluted at least 26-fold with 50 mM 3,3-dimethylglutarate buffer before titration. Protein dilution during titration was determined by titration of buffer into the protein solution. […] The heat of ligand dilution was corrected by subtracting the average heat of injection after saturation.
The binding data were analyzed using ORIGIN software (29). Binding constant, K, and enthalpy change, ΔH, were used to calculate free energy change, ΔG, and entropy change, ΔS, according to equation [1]: −RTLnK=ΔG=ΔH−TΔS [1] where R is the gas constant and T is the absolute temperature.

Row | Molecule | Km (hydrolysis of the EGFR 988-998 peptide, 25 C, pH 7.0) [1] [µM] | Km, fold lower than wild-type enzyme [2] [fold] | kcat, fold lower than wild-type enzyme [2] [fold] | Km ([2]; 25° C. and pH 7.0) [µM] | kcat ([2]; 25° C. and pH 7.0) | Km, fold higher than PTP1B (wild-type) [3] [fold] | kcat, fold lower than PTP1B (wild-type) [3] [fold] | Km ([4]; 25° C. and pH 7.0) [µM] | kcat ([4]; 25° C. and pH 7.0) | level of pTyr in the EGF receptor / enhancement of EGF receptor phosphorylation (EGF receptor) | binding, fold tighter than the C215S mutant ([5]; F2Pmp peptide, previously determined (24)) [fold] | Kd ([5]; ITC, 25° C. and pH 7.0, data from (24)) [nM] | fold lower affinity than the C215S mutant [6] [fold] | fold lower affinity than the D181A mutant [6] [fold] | TΔS [7] [kcal/mol] | ΔG [7] [kcal/mol] | ΔH [7] [kcal/mol] | phosphatase activity [4] | Kd [8] [nM]
1 | PTP1B/D181A, catalytic domain (residues 1 to 321) (protein) MEMEKEFEQIDKSGSWAAIYQDIRHEASDFPCRVAKLPKNKNRNRYRDVSPFDHSRIKLHQEDNDYINASLIKMEEAQRSYILTQGPLPNTCGHFWEMVWEQKSRGVVMLNRVMEKGSLKCAQYWPQKEEKEMIFEDTNLKLTLISEDIKSYYTVRQLELENLTTQETREILHFHYTTWPAFGVPESPASFLNFLFKVRESGSLSPEHGPVVVHCSAGIGRSGTFCLADTCLLLMDKRKDPSSVDIKKVLLEMRKFRMGLIQTADQLRFSYLAVIEGAKFIMGDSSVQDQWKELSHEDLEPPPEHIPPPPRPPKRILEPHN | 56 | 30 | 320 | 80 ± 30 | (3.1 ± 0.3) × 10^−2 s^−1 | 22 | 920 | 56 ± 2 | (6.5 ± 0.2) × 10^−2 s^− | higher in cells expressing the D181A, rather than the C215S, mutant | 5 | 40 ± 10 |  |  |  |  |  |  | 
2 | PTP1B/D181A/C215E, catalytic domain (residues 1 to 321) (enzyme, human, UniProt P18031 1-321, looked up, range 1-321; Used in vitro (ITC)) MEMEKEFEQIDKSGSWAAIYQDIRHEASDFPCRVAKLPKNKNRNRYRDVSPFDHSRIKLHQEDNDYINASLIKMEEAQRSYILTQGPLPNTCGHFWEMVWEQKSRGVVMLNRVMEKGSLKCAQYWPQKEEKEMIFEDTNLKLTLISEDIKSYYTVRQLELENLTTQETREILHFHYTTWPAFGVPESPASFLNFLFKVRESGSLSPEHGPVVVHESAGIGRSGTFCLADTCLLLMDKRKDPSSVDIKKVLLEMRKFRMGLIQTADQLRFSYLAVIEGAKFIMGDSSVQDQWKELSHEDLEPPPEHIPPPPRPPKRILEPHN |  |  |  |  |  |  |  |  |  |  |  |  | 7 | 32 | -20.4 | -8 | -28.4 | no measurable activities | 1300
